# Laboratory results published in the supplement of paper PMC12458215.
# ± gives the uncertainty stated by the source.
# Test system: HEK293T
# Assay: plasma membrane surface immunostaining intensity (anti-HA, deep receptor scanning) (arbitrary fluorescence units); higher = higher plasma membrane expression
# Settings: GPCR class: A
row,Sequence,plasma membrane surface immunostaining intensity
1,MANSASPEQNQNHCSAINNSIPLMQGNLPTLTLSGKIRVTVTFFLFLLSATFNASFLLKLQKWTQKKEKGKKLSRMKLLLKHLTLANLLETLIVMPLDGMWNITVQWYAGELLCKVLSYLKLFSMYAPAFMMVVISLDRSLAITRPLALKSNSKVGQSMVGLAWILSSVFAGPQLYIFRMIHLADSSGQTKVFSQCVTHCSFSQWWHQAFYNFFTFSCLFIIPLFIMLICNAKIIFTLTRVLHQDPHELQLNQSKNNIPRARLKTLKMTVAFATSFTVCWTPYYVLGIWYWFDPEMLNRLSDPVNHFFFLFAFLNPCFDPLIYGYFSL [GNRHR],160 ± 34
2,MDSFNYTTPDYGHYDDKDTLDLNTPVDKTSNTLRVPDILALVIFAVVFLVGVLGNALVVWVTAFEAKRTINAIWFLNLAVADFLSCLALPILFTSIVQHHHWPFGGAACSILPSLILLNMYASILLLATISADRFLLVFKPIWCQNFRGAGLAWIACAVAWGLALLLTIPSFLYRVVREEYFPPKVLCGVDYSHDKRRERAVAIVRLVLGFLWPLLTLTICYTFILLRTWSRRATRSTKTLKVVVAVVASFFIFWLPYQVTGIMMSFLEPSSPTFLLLKKLDSLCVSFAYINCCINPIIYVVAGQGFQGRLRKSLPSLLRNVLTEESVVRESKSFTRSTVDTMAQKTQAV [C5AR1],6196 ± 24
3,MRAVFIQGAEEHPAAFCYQVNGSCPRTVHTLGIQLVIYLACAAGMLIIVLGNVFVAFAVSYFKALHTPTNFLLLSLALADMFLGLLVLPLSTIRSVESCWFFGDFLCRLHTYLDTLFCLTSIFHLCFISIDRHCAICDPLLYPSKFTVRVALRYILAGWGVPAAYTSLFLYTDVVETRLSQWLEEMPCVGSCQLLLNKFWGWLNFPLFFVPCLIMISLYVKIFVVATRQAQQITTLSKSLAGAAKHERKAAKTLGIAVGIYLLCWLPFTIDTMVDSLLHFITPPLVFDIFIWFAYFNSACNPIIYVFSYQWFRKALKLTLSQKVFSPQTRTVDLYQE [TAAR5],381 ± 140
4,MDHQDPYSVQATAAIAAAITFLILFTIFGNALVILAVLTSRSLRAPQNLFLVSLAAADILVATLIIPFSLANELLGYWYFRRTWCEVYLALDVLFCTSSIVHLCAISLDRYWAVSRALEYNSKRTPRRIKCIILTVWLIAAVISLPPLIYKGDQGPQPRGRPQCKLNQEAWYILASSIGSFFAPCLIMILVYLRIYLIAKRSNRRGPRAKGGPGQGESKQPRPDHGGALASAKLPALASVASAREVNGHSKSTGEKEEGETPEDTGTRALPPSWAALPNSGQGQKEGVCGASPEDEAEEEEEEEEEEEECEPQAVPVSPASACSPPLQQPQGSRVLATLRGQVLLGRGVGAIGGQWWRRRAQLTREKRFTFVLAVVIGVFVLCWFPFFFSYSLGAICPKHCKVPHGLFQFFFWIGYCNSSLNPVIYTIFNQDFRRAFRRILCRPWTQTAW [ADRA2B],6390 ± 13
5,MKETRGYGGDAPFCTRLNHSYTGMWAPERSAEARGNLTRPPGSGEDCGSVSVAFPITMLLTGFVGNALAMLLVSRSYRRRESKRKKSFLLCIGWLALTDLVGQLLTTPVVIVVYLSKQRWEHIDPSGRLCTFFGLTMTVFGLSSLFIASAMAVERALAIRAPHWYASHMKTRATRAVLLGVWLAVLAFALLPVLGVGQYTVQWPGTWCFISTGRGGNGTSSSHNWGNLFFASAFAFLGLLALTVTFSCNLATIKALVSRCRAKATASQSSAQWGRITTETAIQLMGIMCVLSVCWSPLLIMMLKMIFNQTSVEHCKTHTEKQKECNFFLIAVRLASLNQILDPWVYLLLRKILLRKFCQIRYHTNNYASSSTSLPCQCSSTLMWSDHLER [PTGER3],684 ± 110
6,MRMEDEDYNTSISYGDEYPDYLDSIVVLEDLSPLEARVTRIFLVVVYSIVCFLGILGNGLVIIIATFKMKKTVNMVWFLNLAVADFLFNVFLPIHITYAAMDYHWVFGTAMCKISNFLLIHNMFTSVFLLTIISSDRCISVLLPVWSQNHRSVRLAYMACMVIWVLAFFLSSPSLVFRDTANLHGKISCFNNFSLSTPGSSSWPTHSQMDPVGYSRHMVVTVTRFLCGFLVPVLIITACYLTIVCKLQRNRLAKTKKPFKIIVTIIITFFLCWCPYHTLNLLELHHTAMPGSVFSLGLPLATALAIANSCMNPILYVFMGQDFKKFKVALFSRLVNALSEDTGHSSYPSHRSFTKMSSMNERTSMNERETGML [CMKLR1],747 ± 64

# Same assay, conditions: GPCR class: A (Olfactory)
row,Sequence,plasma membrane surface immunostaining intensity
1,MANITRMANHTGKLDFILMGLFRRSKHPALLSVVIFVVFLKALSGNAVLILLIHCDAHLHSPMYFFISQLSLMDMAYISVTVPKMLLDQVMGVNKVSAPECGMQMFLYLTLAGSEFFLLATMAYDRYVAICHPLRYPVLMNHRVCLFLASGCWFLGSVDGFMLTPITMSFPFCRSWEIHHFFCEVPAVTILSCSDTSLYETLMYLCCVLMLLIPVTIISSSYLLILLTVHRMNSAEGRKKAFATCSSHLTVVILFYGAAVYTYMLPSSYHTPEKDMMVSVFYTILTPVLNPLIYSLRNKDVMGALKKMLTVRFVL [OR2T5],121 ± 14
2,MPNSTTVMEFLLMRFSDVWTLQILHSASFFMLYLVTLMGNILIVTVTTCDSSLHMPMYFFLRNLSILDACYISVTVPTSCVNSLLDSTTISKAGCVAQVFLVVFFVYVELLFLTIMAHDRYVAVCQPLHYPVIVNSRICIQMTLASLLSGLVYAGMHTGSTFQLPFCRSNVIHQFFCDIPSLLKLSCSDTFSNEVMIVVSALGVGGGCFIFIIRSYIHIFSTVLGFPRGADRTKAFSTCIPHILVVSVFLSSCSSVYLRPPAIPAATQDLILSGFYSIMPPLFNPIIYSLRNKQIKVAIKKIMKRIFYSENV [OR14C36],264 ± 80
3,MKAGNFSDTPEFFLLGLSGDPELQPILFMLFLSMYLATMLGNLLIILAVNSDSHLHTPMYFLLSILSLVDICFTSTTMPKMLVNIQAQAQSINYTGCLTQICFVLVFVGLENGILVMMAYDRFVAICHPLRYNVIMNPKLCGLLLLLSFIVSVLDALLHTLMVLQLTFCIDLEIPHFFCELAHILKLACSDVLINNILVYLVTSLLGVVPLSGIIFSYTRIVSSVMKIPSAGGKYKAFSICGSHLIVVSLFYGTGFGVYLSSGATHSSRKGAIASVMYTVVTPMLNPLIYSLRNKDMLKALRKLISRIPSFH [OR7G3],111 ± 21
4,MKIANNTVVTEFILLGLTQSQDIQLLVFVLILIFYLIILPGNFLIIFTIRSDPGLTAPLYLFLGNLAFLDASYSFIVAPRMLVDFLSEKKVISYRGCITQLFFLHFLGGGEGLLLVVMAFDRYIAICRPLHCSTVMNPRACYAMMLALWLGGFVHSIIQVVLILRLPFCGPNQLDNFFCDVRQVIKLACTDMFVVELLMVFNSGLMTLLCFLGLLASYAVILCHVRRAASEGKNKAMSTCTTRVIIILLMFGPAIFIYMCPFRALPADKMVSLFHTVIFPLMNPMIYTLRNQEVKTSMKRLLSRHVVCQVDFIIRN [OR4N4],255 ± 110

# Same assay, conditions: GPCR class: B
row,Sequence,plasma membrane surface immunostaining intensity
1,MKVGVLWLISFFTFTDGHGGFLGKNDGIKTKKELIVNKKKHLGPVEEYQLLLQVTYRDSKEKRDLRNFLKLLKPPLLWSHGLIRIIRAKATTDCNSLNGVLQCTCEDSYTWFPPSCLDPQNCYLHTAGALPSCECHLNNLSQSVNFCERTKIWGTFKINERFTNDLLNSSSAIYSKYANGIEIQLKKAYERIQGFESVQVTQFRNGSIVAGYEVVGSSSASELLSAIEHVAEKAKTALHKLFPLEDGSFRVFGKAQCNDIVFGFGSKDDEYTLPCSSGYRGNITAKCESSGWQVIRETCVLSLLEELNKNFSMIVGNATEAAVSSFVQNLSVIIRQNPSTTVGNLASVVSILSNISSLSLASHFRVSNSTMEDVISIADNILNSASVTNWTVLLREEKYASSRLLETLENISTLVPPTALPLNFSRKFIDWKGIPVNKSQLKRGYSYQIKMCPQNTSIPIRGRVLIGSDQFQRSLPETIISMASLTLGNILPVSKNGNAQVNGPVISTVIQNYSINEVFLFFSKIESNLSQPHCVFWDFSHLQWNDAGCHLVNETQDIVTCQCTHLTSFSILMSPFVPSTIFPVVKWITYVGLGISIGSLILCLIIEALFWKQIKKSQTSHTRRICMVNIALSLLIADVWFIVGATVDTTVNPSGVCTAAVFFTHFFYLSLFFWMLMLGILLAYRIILVFHHMAQHLMMAVGFCLGYGCPLIISVITIAVTQPSNTYKRKDVCWLNWSNGSKPLLAFVVPALAIVAVNFVVVLLVLTKLWRPTVGERLSRDDKATIIRVGKSLLILTPLLGLTWGFGIGTIVDSQNLAWHVIFALLNAFQGFFILCFGILLDSKLRQLLFNKLSALSSWKQTEKQNSSDLSAKPKFSKPFNPLQNKGHYAFSHTGDSSDNIMLTQFVSNE [ADGRF1],466 ± 27
